This assay concerns the target GST-LcGLO1 (litchi).

The text below walks through data of publication PMC13140691.

As for His-PlAvh133 (natural protein), the enzymatic activity of His-LcGLO1 in vitro (glycolate oxidase assay, H2O2 read at 520 nm, 30°C) with His-PlAvh133 added worked out at 40 % inhibition.
